Measured values as given in patent US20170369542A1 (Pieris, published 2017).

T1: synthetic non-modified human Hepcidin-25 (human, not fully specified)
T1 construct: also called hHepcidin-25; non-biotinylated human hepcidin
T1 peptide: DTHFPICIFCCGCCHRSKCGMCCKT

T2: cynomolgus Hepcidin-25 (cynomolgus, UniProt A7XEI3 60-84, not fully specified)
T2 construct: mature
T2 peptide: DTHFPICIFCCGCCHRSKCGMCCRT

T3: C-terminal biotinylated human Hepcidin-25 (human, not fully specified; biotinylated via a Lysine residue coupled to the C-terminus via a Mini-PEG linker)
T3 construct: Bought from Bachem AG; Captured on plates via Neutravidin; also called C-terminal biotinylated hepcidin; C-terminal biotinylated hHepcidin
T3 peptide: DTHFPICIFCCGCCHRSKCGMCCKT


Experiments:
[1] = target: T1, synthetic non-modified human Hepcidin-25; assay: competition ELISA: non-biotinylated human hepcidin-25 titrated against a constant concentration of mutein; free mutein detected on plate-captured biotinylated human hepcidin
Procedure: The binding affinity of the Lcn2 muteins to non-modified hepcidin-25 in solution was evaluated in a competition ELISA approach. Therefore, a constant concentration of 1 μg/ml C-terminal biotinylated human hepcidin (Bachem AG, CH) was captured on the surface of a polystyrol plate (Greiner, GE) via Neutravidin (Thermo Scientific, 5 μg/ml, GE). In parallel a two step dilution series of non-biotinylated human hepcidin starting from 1 μM was incubated with a constant concentration of hepcidin-specific mutein for 1 h at room temperature in a non-protein binding 96 well polypropylene plate (Nunc, GE). The constant concentration of lipocalin muteins corresponds to the EC₅₀ of the respective muteins as determined in a direct ELISA as described above in this example. In the following the mixture of non-modified human hepcidin and lipocalin mutein was transferred onto the hepcidin-captured Neutravidin plate. The C-terminal biotinylated hepcidin was allowed to compete with the non-modified hepcidin for Anticalin binding for 20 min. at room temperature. During these 20 min, free lipcocalin mutein was bound to the captured hepcidin and detected via a rabbit anti-strep-tag II polyconal antibody (GenScript, USA). A goat anti-rabbit IgG-HRP conjugate (Abcam, UK) was employed as secondary detection antibody. Parallel to the competition assay, anticalin binding was determined on the same plate in a “direct” ELISA, in order to obtain a standard curve linking the RFU values to anticalin concentration. This curve was then used to standardize competition data to the level of anticalins bounds to the plate and fitted with Graphpad software. IC₅₀ values correspond to the half-maximum amount of lipocalin mutein bound to the plate.

cynomolgus Hepcidin-25 = target: T2, cynomolgus Hepcidin-25; assay: direct ELISA on cynomolgus hep-25, mutein titrated
Procedure: (§1) A “direct” ELISA was performed to verify the binding affinity and specificity of the selected Lcn2 muteins. Therefore, a constant concentration of 1 μg/ml C-terminal biotinylated hepcidin (Bachem AG, CH) was captured on the surface of a polystyrol plate (Greiner, GE) via Neutravidin (Thermo Scientific, 5 μg/ml). Two step dilution series of purified Lcn2 muteins were incubated with the captured hepcidin for 1 h at room temperature and detected either via the Strep-tag II using a rabbit anti-strep-tag II polyconal antibody (GenScript, USA) or by using a scaffold-specific polyclonal rabbit antibody. In both cases an anti rabbit IgG-HRP conjugate (Abcam, UK) was employed as secondary detection antibody.
(§2) The absorption ΔA at […] was measured in an ELISA reader (Tecan, GE) and the data were fitted with Graphpad Prism software (Statcom, USA).

[2] = target: T3, C-terminal biotinylated human …; assay: direct ELISA, biotinylated hepcidin captured via Neutravidin, mutein titrated
Procedure: as §1, §2

[3] = target: T1, synthetic non-modified human Hepcidin-25; assay: cell-based or functional assay

| Binder | IC50 [1] [nM] | Kd (cynomolgus Hepcidin-25) [nM] | Kd [2] [nM] | IC50 of neutralization of hepcidin-induced (40 nM) internalization and degradation of FPN-GFP in T-REx-293 cells, GFP fluorescence by flow cytometry [3] [nM] |
| --- | --- | --- | --- | --- |
| lipocalin mutein of SEQ ID NO: 1, linked to albumine-binding domain (ABD) (SEQ ID NO: 15) (designed binder, also called ABD-fusion protein) QDSTSDLIPAPPLSKVPLQQNFQDNQFHGKWYVVGLAGNEVLREDKDPMKMWATIYELEEDKSYNVTIVMFLAKKCEYLFQTFVPGSQPGEFTLGDIKSSPGRTSGLVRVVSTNYNQHAMVFFKVVWQNREVFWITLYGRTKELTSELKENFIRFSKSLGLPENHIVFPVPIDQCIDGSAGAVDANSLAEAKVLANRELDKYGVSDYYKNLINNAKTVEGVKALIDEILAALPSAWSHPQFEK | 0.37 | 0.22 | 0.48 | 39 |
| lipocalin mutein of SEQ ID NO: 4 (designed binder, also called Lcn2 mutein) QDSTSDLIPAPPLSKVPLQQNFQDNQFHGKWYVVGVAGNEMLREDKDPLKMLATIYELKEDKSYNVTRVMFEYKKCVYLIETFVPGSQPGEFTLGTIKSVPGLTSGLVRVVSTNYNQHAMVFFKRVWQNREVFWITLYGRTKELTSELKENFIRFSKSLGLPENHIVFPVPIDQCIDG | 0.6 | 2.03 | 1.39 | 62 |
| lipocalin mutein of SEQ ID NO: 6 (designed binder, also called Lcn2 mutein) QDSTSDLIPAPPLSKVPLQQNFQDNQFHGKWYVVGLAGNEILREDKDPLKMWATIYELKEDKSYNVTRVQFGEKKCGYGIETFVPGSQPGEFTLGSIKSVPGGTSRLVRVVSTNYNQHAMVFFKFVWQNREVFWITLYGRTKELTSELKENFIRFSKSLGLPENHIVFPVPIDQCIDG | 1.7 | 0.79 | 0.76 | 65 |
| lipocalin mutein of SEQ ID NO: 2 (designed binder, also called Lcn2 mutein) QDSTSDLIPAPPLSKVPLQQNFQDNQFHGKWYVVGTAGNSILREDKDPQKMWATIYELKEDKSYNVTRVFFEGKKCRYVIETFVPGSQPGEFTLGKIKSAPGGTSILVRVVSTNYNQHAMVFFKVVWQNRELFWITLYGRTKELTSELKENFIRFSKSLGLPENHIVFPVPIDQCIDG | 9 | 3.15 | 2.12 | 62 |
| lipocalin mutein of SEQ ID NO: 5 (designed binder, also called Lcn2 mutein) QDSTSDLIPAPPLSKVPLQQNFQDNQFHGKWYVVGAAGNSLLREDKDPMKMWATIYELKEDKSYNVTRVNFGGKKCSYLIETFVPGSQPGEFTLGSIKSRPGATSVLVRVVSTNYNQHAMVFFKLVTQNREVFWITLYGRTKELTSELKENFIRFSKSLGLPENHIVFPVPIDQCIDG | 10.8 | 6.83 | 4.13 | – |
| lipocalin mutein of SEQ ID NO: 3 (designed binder, also called Lcn2 mutein) QDSTSDLIPAPPLSKVPLQQNFQDNQFHGKWYVVGVAGNGLLREDKDPLKMHATIYELKEDKSYNVTRVLFVRKKCRYYISTFVPGSQPGEFTLGRIKSEPGRTSFLVRVVSTNYNQHAMVFFKMVWQNREVFWITLYGRTKELTSELKENFIRFSKSLGLPENHIVFPVPIDQCIDG | 0.38 | 0.59 | 0.84 | – |
| lipocalin mutein of SEQ ID NO: 9 (designed binder, also called Lcn2 mutein) QDSTSDLIPAPPLSKVPLQQNFQDNQFHGKWYVVGLAGNEVLREDKDPMKMWATIYELKEDKSYNVTIVMSLAKKCEYLFQTFVPGSQPGEFTLGDIKSSPGRTSGLVRVVSTNYNQHAMVFFKVVWQNREVFWITLYGRTKELTSGLKENFIRFSKSLGLPENHIVFPVPIDQCIDG | 0.12 | 1.14 | 0.75 | – |
| lipocalin mutein of SEQ ID NO: 11 (designed binder, also called Lcn2 mutein) QDSTSDLIPAPPLSKVPLQQNFQDNQFHGKWYVVGLAGNEILREDKDPMKMWATIYELKEDKSYNVTIVMFLAKKCEYLFQTFVPGSQPGEFTLGDIKSSPGRTSGLVRVVSTNYNQHAMVFFKVVWQNREVFWITLYGRTKELTSGLKENFIRFSKSLGLPENHIVFPVPIDQCIDG | 0.11 | 0.61 | 0.64 | 31 |
| lipocalin mutein of SEQ ID NO: 12 (designed binder, also called Lcn2 mutein) QDSTSDLIPAPPLSKVPLQQNFQDNQFHGKWYVVGLAGNEVLREDKDPMKMWATIYELKEDKSYNVTIVMFLAEECEYLFQTFVPGSQPGEFTLGDIKSSPGRTSGLVRVVSTNYNQHAMVFFKVVWQNREVFWITLYGRTKELTSELKKNFIRFSKSLGLPENHIVFPVPIDQCIDG | 0.17 | 0.96 | 0.64 | – |
| lipocalin mutein of SEQ ID NO: 14, linked to PEG40 (designed binder, branched 40k PEG-maleimide on the free Cys at position 87, hNGAL mutein with Ser 87 back-mutated to Cys and PEGylated there) QDSTSDLIPAPPLSKVPLQQNFQDNQFHGKWYVVGLAGNEVLREDKDPMKMWATIYELEEDKSYNVTIVMFLAKKCEYLFQTFVPGCQPGEFTLGDIKSSPGRTSGLVRVVSTNYNQHAMVFFKTVWQNREVFWITLYGRTKELTSELKENFIRFSKSLGLPENHIVFPVPIDQCIDG | 1.17 | 1.36 | 2.18 | 25 |
| lipocalin mutein of SEQ ID NO: 10 (designed binder, also called Lcn2 mutein) QDSTSDLIPAPPLSKVPLQQNFQDNQFHGKWYVVGLAGNEILREDKDPMKMWATIYELKEDRSYNVTIVMFLAKKCEYLFQTFVPGSQPGEFTLGDIKSSPGRTSGLVRVVSTNYNQHAMVFFKVVWQNREVFWITLYGRTKELTPELKENFIRFSKSLGLPENHIVFPVPIDQCIDGF | 0.18 | 0.82 | 0.75 | 25 |
| lipocalin mutein of SEQ ID NO: 7 (designed binder, also called Lcn2 mutein) QDSTSDLIPAPPLSKVPLQQNFQDNQFHGKWYVVGLAGNRVLREDKDPQKMFATIYELKEDKSYNVTGVDFRTKKCLYSIGTFVPGSQPGEFTLGVIKSQPGWTSYLVRVVSTNYNQHAMVFFKTVWQNREVFWITLYGRTKELTSELKENFIRFSKSLGLPENHIVFPVPIDQCIDG | 1.3 | 0.22 | 0.48 | 79 |
